Article PMC10237670, “Biochemical properties of naturally occurring human bloom helicase variants”

Legend:
BLMcore G1120R [1] = target: T1, BLMcore G1120R (Homo sapiens, UniProt P54132 636-1298, G1120R); assay: EMSA; 5 mM MgCl2; distinct shift; estimated apparent KD; 50 mM Tris-HCl pH 7.5, 50 mM KCl, 5 mM MgCl2, 1 mM DTT, 0.1 mg/mL BSA, 40 nM DNA, 30 min room temperature; 5% gel in TBE + 100 mM KCl at 4 C; settings: protein: recombinant; (HisTrap purified); label: 3'-FAM on oAV320 (strand 2); 18 bp duplex, 3' overhang 39 nt on strand 1
T1 sequence (P54132 636-1298 G1120R): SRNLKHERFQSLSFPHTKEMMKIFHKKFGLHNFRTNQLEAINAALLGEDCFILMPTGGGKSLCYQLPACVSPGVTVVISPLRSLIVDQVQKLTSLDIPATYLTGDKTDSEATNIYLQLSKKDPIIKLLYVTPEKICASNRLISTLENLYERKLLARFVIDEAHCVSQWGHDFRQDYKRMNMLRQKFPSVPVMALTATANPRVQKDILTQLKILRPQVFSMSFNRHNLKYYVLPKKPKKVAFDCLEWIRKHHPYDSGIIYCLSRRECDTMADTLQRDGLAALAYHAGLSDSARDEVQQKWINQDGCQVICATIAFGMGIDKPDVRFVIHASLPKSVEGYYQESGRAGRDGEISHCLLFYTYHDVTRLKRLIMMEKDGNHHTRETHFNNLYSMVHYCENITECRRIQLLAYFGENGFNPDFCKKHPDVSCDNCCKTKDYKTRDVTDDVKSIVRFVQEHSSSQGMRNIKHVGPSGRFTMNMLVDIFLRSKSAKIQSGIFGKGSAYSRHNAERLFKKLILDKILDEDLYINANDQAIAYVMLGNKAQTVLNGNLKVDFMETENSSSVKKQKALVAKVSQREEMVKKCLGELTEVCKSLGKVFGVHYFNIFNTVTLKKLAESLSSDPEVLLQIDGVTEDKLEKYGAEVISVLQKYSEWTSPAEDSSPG

BLMcore P868L [2] = target: T2, BLMcore P868L (Homo sapiens, UniProt P54132 636-1298, P868L); assay: as above; settings: protein: recombinant; (HisTrap purified); label: 3'-FAM on oAV320 (strand 2); 18 bp duplex, 3' overhang 39 nt on strand 1
T2 sequence (P54132 636-1298 P868L): as the sequence (P54132 636-1298 G1120R) above, with P233L, R485G counted along it

BLMcore G1120R [3] = target: T1, BLMcore G1120R; assay: EMSA; 5 mM MgCl2; smear; estimated apparent KD; 50 mM Tris-HCl pH 7.5, 50 mM KCl, 5 mM MgCl2, 1 mM DTT, 0.1 mg/mL BSA, 40 nM DNA, 30 min room temperature; 5% gel in TBE + 100 mM KCl at 4 C; settings: protein: recombinant, (HisTrap purified)
BLMcore K869A K870A = BLMcore K869A K870A (Homo sapiens, UniProt P54132 636-1298, K869A;K870A); assay: as above; settings: protein: recombinant, (HisTrap purified)
Sequence of BLMcore K869A K870A (P54132 636-1298 K869A/K870A): as the sequence (P54132 636-1298 G1120R) above, with K234A, K235A, R485G counted along it

BLMcore P868L [4] = target: T2, BLMcore P868L; assay: as above; settings: protein: recombinant, (HisTrap purified)
[5] = label: 3'-FAM, intramolecular G4 (folded in 100 mM KCl) with 3' T-rich ssDNA tail

B1: partial dsDNA with 3' ssDNA overhang (oRC32/FAM-oAV320) (dsDNA)
DNA 1: TGGCGACGGCAGCGAGGCTTAGGGTTAGCGTTAGCGTTAGGGTTTTTTTTTTTTTTT
DNA 2: GCCTCGCTGCCGTCGCCA
BLMcore G1120R [1]
  Kd: ~62.5 nM
BLMcore P868L [2]
  Kd: ~62.5 nM

## GGGTTAGGGTTAGGGTTAGGGTTTTTTTTTT (structured_DNA) [G4 DNA with 3' ssDNA overhang (FAM-oRC96)]
BLMcore G1120R [3]; [5]
  Kd: ~250 nM
BLMcore K869A K870A; [5]
  Kd: ~625 nM
BLMcore P868L [4]; [5]
  Kd: ~125 nM

## TTTTTTTTTTTTTTTTTTTTTTTTTTTTTT (ssDNA) [FAM-dT30 (ssDNA)]
BLMcore G1120R [3]; single strand
  Kd: ~62.5 nM
BLMcore K869A K870A; single strand
  Kd: ~312 nM
BLMcore P868L [4]; single strand
  Kd: ~62.5 nM
